Measured values: patent US20120003235A1 (published 2012)

T1: soluble Flag-tagged LTα1β2 (UniProt P01374 35-205, limits assumed)
T1 construct: Soluble, Flag-tagged heterotrimer captured on anti-Flag M2 in Biacore; also called Ligand
T1 sequence 1: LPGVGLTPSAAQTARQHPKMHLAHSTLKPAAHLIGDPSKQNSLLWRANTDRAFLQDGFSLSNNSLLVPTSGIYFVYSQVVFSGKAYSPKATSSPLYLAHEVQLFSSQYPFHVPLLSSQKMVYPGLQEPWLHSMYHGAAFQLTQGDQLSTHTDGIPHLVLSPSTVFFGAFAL
T1 sequence 2: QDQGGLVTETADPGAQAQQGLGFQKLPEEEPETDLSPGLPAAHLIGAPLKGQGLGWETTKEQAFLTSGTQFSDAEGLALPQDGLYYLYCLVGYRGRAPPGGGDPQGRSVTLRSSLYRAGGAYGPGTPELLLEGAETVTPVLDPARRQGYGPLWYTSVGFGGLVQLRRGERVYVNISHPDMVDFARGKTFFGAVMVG

B1: monomeric LTβR (receptor, UniProt P36941 28-227, looked up)
chain: SQPQAVPPYASENQTCRDQEKEYYEPQHRICCSRCPPGTYVSAKCSRIRDTVCATCAENSYNEHWNYLTICQLCRPCDPVMGLEEIAPCTSKRKTQCRCQPGMFCAAWALECTHCELLSDCPPGTEAELKDEVGKGNNHCVPCKAGHFQNTSSPSARCQPHTRCENQGLVEAAPGTAQSDTTCKNPLEPLPPEMSGTMLM
notes: Injected at 20 µM in Biacore; also called LTbR
B2: mAb 9B4 (antibody, V domains shown)
VH: QVTLKESGPGILQPSQTLSLTCSFSGFSLSTSGMGVSWIRQPSGKGLEWLAHIYWDDDKRYNPSLRSRLTISKDTSRNQVFLKITSVDTADTATYYCARREGYYGSSFDFDVWGAGTTVTVSS
VL: QIVLSQSPAILSASPGEKVTMTCRASSSVSYMIWYQQKPGSSPKPWIYATSSLASGVPTRFSGSGSGTSYSLTISRVEAADAATYYCQQWSYNPLTFGAGTKLELK
notes: Murine monoclonal antibody; only mature variable domains printed; kappa light chain; also called LT 9B4; LT9B4
B3: mAb LT102 (P1G8.2) (antibody, V domains shown)
VH: EVKLVESGGGLVKPGGSLKLSCAVSGFTFSDYYMYWIRQTPEKRLEWVATIGDGTSYTHYPDSVQGRFTISRDYATNNLYLQMTSLRSEDTALYYCARDLGTGPFAYWGQGTLVTVSA
VL: DVLMTQTPRSLPVSLGDQASISCRSSQNIVHSNGNTYLEWYLQKPGQSPKLLIYKVSNRFSGVPDRFSGSGSGTDFTLKISRVEAEDLGVYYCFQGSHFPWTFGGGTKLEIK
notes: only mature variable domains printed; also called LT012
B4: mAb LT105 (P2E9.7) (antibody, V domains shown)
VH: DVQLQESGPGLVKPSQSLSLTCSVTGYSITSGYYWNWIRQFPGNKLEGMGYISYDGSNNYNPSLKNRISITRDSSKNQFFLKLNSVTAEDSGTYYCARDAYSYGMDYWGQGTSVTVSS
VL: DIVLTQSPASLAVSLGQRATISCRASESVDNYGISFMHWYQQKPGQPPKLLIYRASNLESGIPARFSGSGSRTDFTLTINPVETDDVATFYCQQSNKDPYTFGGGTKLEIK
notes: only mature variable domains printed
B5: LT105 Fab fragment (Fab, V domains shown)
VH: B4 VH
VL: B4 VL

What was measured:
[1] = biological target: T1, soluble Flag-tagged LTα1β2; assay: SPR (Biacore 3000), Flag-LTα1β2 captured on anti-Flag M2 chip; LTβR binding site 2
[2] = biological target: T1, soluble Flag-tagged LTα1β2; assay: SPR (Biacore 3000), Flag-LTα1β2 captured on anti-Flag M2 chip; LTβR binding site 1
[3] = biological target: T1, soluble Flag-tagged LTα1β2; assay: SPR (Biacore 3000), Flag-LTα1β2 captured on anti-Flag M2 chip; apparent affinity of intact antibody
[4] = biological target: T1, soluble Flag-tagged LTα1β2; assay: SPR (Biacore 3000), Flag-LTα1β2 captured on anti-Flag M2 chip; Fab fragment

Binder | Kd [3] [nM] | also measured
B1 | – | Kd [1]: ~1500 nM; Kd [2]: ~50 nM
B2 | ≤ 0.3 | –
B3 | ≤ 0.3 | –
B4 | ≤ 0.3 | –
B5 | – | Kd [4]: ≥ 2 nM
